The results in this text go back to patent US20050227306.

Series [1] has as its target His6-tetraCys-X-MBP protease substrate 23-F [MBP: P0AEX9].
Series [2] has as its target His6-tetraCys-X-MBP protease substrate 26-F [MBP: P0AEX9].
For series [3], the target named is His6-tetraCys-X-MBP protease substrate 25-F [MBP: P0AEX9].
For series [4], the target named is His6-tetraCys-X-MBP protease substrate 24-F [MBP: P0AEX9].
The target in series [5] is At3g03410 fusion protein expressed from pVP14.
Series [6] has as its target His6-tetraCys-X-MBP protease substrate 21-F [MBP: P0AEX9].
The target of series [7] is At3g16990 fusion protein expressed from pVP15.
In series [8] the target is His6-tetraCys-X-MBP protease substrate 22-F [MBP: P0AEX9].

B1: tobacco etch virus (TEV) protease (protein)
chain: GESLFKGPRDYNPISSTICHLTNESDGHTTSLYGIGFGPFIITNKHLFRRNNGTLLVQSLHGVFKVKNTTTLQQHLIDGRDMIIIRMPKDFPPFPQKLKFREPQREERICLVTTNFQTKSMSSMVSDTSCTFPSSDGIFWKHWIQTKDGQCGSPLVSTRDGFIVGIHSASNFTNTNNYFTSVPKNFMELLTNQEAQQWVSGWRLNADSVLWGGHKVFMSKPEEPFQPVKEATQLMNELVYSQ
As for B1, the relative rate of reaction (initial proteolysis rate by fluorescence anisotropy, normalised to the cognate substrate) (relative rate) in series [1] was -0.02; in series [2], 1; in series [3], 0; in series [4], -0.01; in series [6], 0.01; in series [8], 0. The “specific reaction rate (slope of initial proteolysis rate versus protease concentration)” value in series [2] was “TEV protease; 17.3±0.7”. In addition, the “fluorescence anisotropy over time” value is recorded as “time-dependent decreases in anisotropy” in series [5] and “a time-dependent decrease in anisotropy was observed” in series [7]. Further, the “fluorescence anisotropy and SDS-PAGE” value in series [6] is reported as “underwent a minor amount of proteolysis”.
